From publication PMC7485968 (2020)
Blank lines part the entries; values can stand above or below the binder they belong to.

Experiments:
[1] = molecular target: T1, His-tagged ERG (Homo sapiens (Human), UniProt P11308); assay: His-tag pull-down
T1 chain: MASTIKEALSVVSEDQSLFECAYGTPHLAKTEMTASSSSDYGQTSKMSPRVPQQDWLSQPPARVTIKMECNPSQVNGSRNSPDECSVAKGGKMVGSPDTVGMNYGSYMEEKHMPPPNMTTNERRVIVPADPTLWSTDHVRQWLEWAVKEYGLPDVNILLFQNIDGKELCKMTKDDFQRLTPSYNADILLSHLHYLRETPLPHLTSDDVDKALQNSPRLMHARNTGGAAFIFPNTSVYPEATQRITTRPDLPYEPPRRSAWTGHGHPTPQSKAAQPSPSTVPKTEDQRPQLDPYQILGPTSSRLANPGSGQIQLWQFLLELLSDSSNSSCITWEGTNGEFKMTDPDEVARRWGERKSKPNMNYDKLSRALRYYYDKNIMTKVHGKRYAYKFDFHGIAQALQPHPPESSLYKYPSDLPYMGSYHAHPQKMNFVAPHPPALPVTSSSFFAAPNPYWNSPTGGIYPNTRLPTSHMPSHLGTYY

[2] = molecular target: T1, His-tagged ERG; assay: His-tag pull-down; AlphaScreen

- binding result [1]: no binding
B1: FLAG-GST-EWS 459-656aa (protein)
chain: PPREGRGMPPPLRGGPGGPGGPGGPMGRMGGRGGDRGGFPPRGPRGSRGNPSGGGNVQHRAGDWQCPNPGCGNQNFAWRTECNQCKAPKPEGFLPPPFPPPGGDRGRGGPGGMRGGRGGLMDRGGPGGMFRGGRGGDRGGFRGGRGMDRGGFGGGRRGGPGGPPGPLMEQMGGRRGGRGGPGKMDKGEHRQERRDRPY

- binding result [2]: binds
B2: FLAG-GST-EWS 1-355aa (protein)
chain: MASTDYSTYSQAAAQQGYSAYTAQPTQGYAQTTQAYGQQSYGTYGQPTDVSYTQAQTTATYGQTAYATSYGQPPTGYTTPTAPQAYSQPVQGYGTGAYDTTTATVTTTQASYAAQSAYGTQPAYPAYGQQPAATAPTRPQDGNKPTETSQPQSSTGGYNQPSLGYGQSNYSYPQVPGSYPMQPVTAPPSYPPTSYSSTQPTSYDQSSYSQQNTYGQPSSYGQQSSYGQQSSYGQQPPTSYPPQTGSYSQAPSQYSQQSSSYGQQSSFRQDHPSSMGVYGQESGGFSGPGENRSMSGPDNRGRGRGGFDRGGMSRGGRGGGRGGMGSAGERGGFNKPGGPMDEGPDLDLGPPVDPD
